Target: FGFR3 (UniProt P22607)
Assay: phosphorylation enrichment, bacterial display (enrichment ratio); higher = better substrate or ligand; peptides without Tyr show the background
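Further: 11-residue human phosphosite peptides and single-mutation variants displayed on the E. coli surface, counted by deep sequencing, each peptide's frequency after selection divided by its frequency in the unselected input library; frequency after pTyr selection over input frequency; kinase dosed for 20-30% of maximal phosphorylation in three min.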

FGFR3, sequence (P22607 whole entry, looked up): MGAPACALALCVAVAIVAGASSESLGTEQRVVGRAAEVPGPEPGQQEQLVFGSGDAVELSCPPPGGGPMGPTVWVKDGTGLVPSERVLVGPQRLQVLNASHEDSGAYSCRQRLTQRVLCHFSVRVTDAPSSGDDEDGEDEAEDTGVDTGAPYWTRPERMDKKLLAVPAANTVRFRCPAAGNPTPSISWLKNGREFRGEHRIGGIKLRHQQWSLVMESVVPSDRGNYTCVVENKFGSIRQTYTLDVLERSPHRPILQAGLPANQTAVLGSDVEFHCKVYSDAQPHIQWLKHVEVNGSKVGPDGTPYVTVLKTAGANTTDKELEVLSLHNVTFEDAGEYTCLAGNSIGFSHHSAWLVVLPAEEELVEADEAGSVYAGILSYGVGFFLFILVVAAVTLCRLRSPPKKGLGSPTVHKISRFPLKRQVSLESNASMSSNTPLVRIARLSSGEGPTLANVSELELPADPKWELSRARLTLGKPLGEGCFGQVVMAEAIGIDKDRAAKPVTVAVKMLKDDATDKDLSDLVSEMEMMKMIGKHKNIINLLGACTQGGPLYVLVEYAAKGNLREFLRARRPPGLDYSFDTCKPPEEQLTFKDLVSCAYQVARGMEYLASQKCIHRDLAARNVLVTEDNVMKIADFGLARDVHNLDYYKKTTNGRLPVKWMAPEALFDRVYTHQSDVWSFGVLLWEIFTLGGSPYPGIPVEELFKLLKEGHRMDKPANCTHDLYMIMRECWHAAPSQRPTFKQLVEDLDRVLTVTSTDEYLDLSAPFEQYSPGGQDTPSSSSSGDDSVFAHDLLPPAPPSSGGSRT

Sequence	phosphorylation enrichment
QWPGPYDRPGA [HNRNPH2_Y210_R206W]	0.798
EEGRVYVYRLS [ITGAE_Y549]	0.76
DHCNQYEQQKM [CHD7_Y75_Y72C]	0.682
RGFDTYFGYLL [ARSB_Y165]	3.3
LLREWYLQDPF [SIX3_Y225_YF]	0.784
PRNLIYFGEHP [TRPV6_Y201_C197R]	0.912
KKLEVYQSIAD [MYBPC3_Y548]	0.75
THQKSYQPGRK [CEFIP_Y210_N208K]	0.362
SSEFHYVGGFF [CTSC_Y347_YF]	0.813
FASTGYVIAIQ [GRIN2B_Y762_G763V]	0.724
QNVADYMRCLM [RPL5_Y207_Y210C]	0.969
IGNGYYFRVFS [MYBPC3_Y1136]	0.947
LYSINYLHFGD [KDM4C_Y201_E206D]	3.85
KGSEGYLAAIY [NF1_Y2503_T2507I]	0.552
KGSLPYNLILD [PKD1L2_Y406]	0.616
RRVLVYVGRGA [QDPR_Y16_G17V]	0.648
ENPAKYDDIKK [GAPDH_Y255_K251N]	0.69
IFLADCRIMEG [ALOX12B_Y318_Y318C_YF]	1.02
NVTRKYSRQIL [MAP3K2_Y463_T464S]	0.352
LNAGAYSKVVE [PPT1_Y172_Q177E]	0.378
KNNSIYVLANI [VNN1_Y134_V136L]	1.08
GHEYIYVDRMQ [PDGFRB_Y581_P584R]	3.24
TRSFKYLLLSM [NF1_Y491_YF]	0.548
SDVWSYGVTMW [ZAP70_Y525]	0.847
DVSVVCSEVKT [FCRL4_Y493_Y493C]	0.838
METKGYHSLPE [NR3C2_Y6]	0.563
TDLAFYLVCKG [ASL_Y376_R379C_YF]	0.94
FEGHSYSACTT [MMP9_Y241_R239H]	0.656
PESTLYRKFTT [NTRK1_Y701_I699T]	0.644

System: Fer (mouse)
Assay: as above

Sequence	phosphorylation enrichment
QWPGPYDRPGA [HNRNPH2_Y210_R206W]	0.858
EEGRVYVYRLS [ITGAE_Y549]	0.505
DHCNQYEQQKM [CHD7_Y75_Y72C]	0.499
RGFDTYFGYLL [ARSB_Y165]	3.59
LLREWYLQDPF [SIX3_Y225_YF]	0.661
PRNLIYFGEHP [TRPV6_Y201_C197R]	0.619
KKLEVYQSIAD [MYBPC3_Y548]	0.502
THQKSYQPGRK [CEFIP_Y210_N208K]	0.464
SSEFHYVGGFF [CTSC_Y347_YF]	0.558
FASTGYVIAIQ [GRIN2B_Y762_G763V]	0.543
QNVADYMRCLM [RPL5_Y207_Y210C]	0.797
IGNGYYFRVFS [MYBPC3_Y1136]	0.556
LYSINYLHFGD [KDM4C_Y201_E206D]	15.8
KGSEGYLAAIY [NF1_Y2503_T2507I]	0.493
KGSLPYNLILD [PKD1L2_Y406]	0.488
RRVLVYVGRGA [QDPR_Y16_G17V]	0.85
ENPAKYDDIKK [GAPDH_Y255_K251N]	0.453
IFLADCRIMEG [ALOX12B_Y318_Y318C_YF]	0.594
NVTRKYSRQIL [MAP3K2_Y463_T464S]	0.402
LNAGAYSKVVE [PPT1_Y172_Q177E]	0.551
KNNSIYVLANI [VNN1_Y134_V136L]	2.7
GHEYIYVDRMQ [PDGFRB_Y581_P584R]	0.472
TRSFKYLLLSM [NF1_Y491_YF]	0.38
SDVWSYGVTMW [ZAP70_Y525]	0.63
DVSVVCSEVKT [FCRL4_Y493_Y493C]	0.537
METKGYHSLPE [NR3C2_Y6]	0.399
TDLAFYLVCKG [ASL_Y376_R379C_YF]	0.647
FEGHSYSACTT [MMP9_Y241_R239H]	0.644
PESTLYRKFTT [NTRK1_Y701_I699T]	0.448

Target: Fes (UniProt P07332)
Assay: as above

Fes, sequence (P07332 whole entry, looked up): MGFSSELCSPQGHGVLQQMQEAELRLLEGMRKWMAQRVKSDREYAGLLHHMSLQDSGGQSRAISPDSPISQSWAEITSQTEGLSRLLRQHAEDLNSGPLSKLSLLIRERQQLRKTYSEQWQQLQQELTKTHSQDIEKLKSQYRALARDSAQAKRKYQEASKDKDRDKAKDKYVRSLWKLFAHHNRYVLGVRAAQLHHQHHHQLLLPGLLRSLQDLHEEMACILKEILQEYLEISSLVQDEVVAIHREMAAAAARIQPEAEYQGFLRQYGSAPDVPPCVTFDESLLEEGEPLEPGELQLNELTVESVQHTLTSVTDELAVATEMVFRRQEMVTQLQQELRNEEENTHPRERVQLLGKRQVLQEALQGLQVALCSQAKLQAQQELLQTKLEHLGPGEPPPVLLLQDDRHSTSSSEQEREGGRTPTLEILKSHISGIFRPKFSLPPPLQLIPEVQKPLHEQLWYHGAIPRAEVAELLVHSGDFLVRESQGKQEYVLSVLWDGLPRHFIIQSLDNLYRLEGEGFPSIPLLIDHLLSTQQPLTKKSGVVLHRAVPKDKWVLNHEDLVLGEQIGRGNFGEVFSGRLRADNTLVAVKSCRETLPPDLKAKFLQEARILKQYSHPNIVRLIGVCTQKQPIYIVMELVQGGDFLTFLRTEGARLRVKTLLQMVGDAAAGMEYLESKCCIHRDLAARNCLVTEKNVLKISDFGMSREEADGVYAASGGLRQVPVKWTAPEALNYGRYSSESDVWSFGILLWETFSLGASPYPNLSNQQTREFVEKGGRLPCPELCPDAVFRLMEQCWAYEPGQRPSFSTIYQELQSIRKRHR

Sequence	phosphorylation enrichment
QWPGPYDRPGA [HNRNPH2_Y210_R206W]	0.928
EEGRVYVYRLS [ITGAE_Y549]	1.11
DHCNQYEQQKM [CHD7_Y75_Y72C]	0.823
RGFDTYFGYLL [ARSB_Y165]	1.63
LLREWYLQDPF [SIX3_Y225_YF]	1.73
PRNLIYFGEHP [TRPV6_Y201_C197R]	1.51
KKLEVYQSIAD [MYBPC3_Y548]	0.882
THQKSYQPGRK [CEFIP_Y210_N208K]	0.472
SSEFHYVGGFF [CTSC_Y347_YF]	1.16
FASTGYVIAIQ [GRIN2B_Y762_G763V]	0.983
QNVADYMRCLM [RPL5_Y207_Y210C]	1.62
IGNGYYFRVFS [MYBPC3_Y1136]	1.43
LYSINYLHFGD [KDM4C_Y201_E206D]	1.84
KGSEGYLAAIY [NF1_Y2503_T2507I]	0.912
KGSLPYNLILD [PKD1L2_Y406]	0.713
RRVLVYVGRGA [QDPR_Y16_G17V]	0.799
ENPAKYDDIKK [GAPDH_Y255_K251N]	1.04
IFLADCRIMEG [ALOX12B_Y318_Y318C_YF]	1.48
NVTRKYSRQIL [MAP3K2_Y463_T464S]	0.446
LNAGAYSKVVE [PPT1_Y172_Q177E]	0.664
KNNSIYVLANI [VNN1_Y134_V136L]	1.24
GHEYIYVDRMQ [PDGFRB_Y581_P584R]	0.695
TRSFKYLLLSM [NF1_Y491_YF]	1.07
SDVWSYGVTMW [ZAP70_Y525]	1.39
DVSVVCSEVKT [FCRL4_Y493_Y493C]	1.3
METKGYHSLPE [NR3C2_Y6]	1.01
TDLAFYLVCKG [ASL_Y376_R379C_YF]	1.7
FEGHSYSACTT [MMP9_Y241_R239H]	1.1
PESTLYRKFTT [NTRK1_Y701_I699T]	0.83

Target: Fyn (UniProt P06241)
Assay: as above

Fyn, sequence (P06241 whole entry, looked up): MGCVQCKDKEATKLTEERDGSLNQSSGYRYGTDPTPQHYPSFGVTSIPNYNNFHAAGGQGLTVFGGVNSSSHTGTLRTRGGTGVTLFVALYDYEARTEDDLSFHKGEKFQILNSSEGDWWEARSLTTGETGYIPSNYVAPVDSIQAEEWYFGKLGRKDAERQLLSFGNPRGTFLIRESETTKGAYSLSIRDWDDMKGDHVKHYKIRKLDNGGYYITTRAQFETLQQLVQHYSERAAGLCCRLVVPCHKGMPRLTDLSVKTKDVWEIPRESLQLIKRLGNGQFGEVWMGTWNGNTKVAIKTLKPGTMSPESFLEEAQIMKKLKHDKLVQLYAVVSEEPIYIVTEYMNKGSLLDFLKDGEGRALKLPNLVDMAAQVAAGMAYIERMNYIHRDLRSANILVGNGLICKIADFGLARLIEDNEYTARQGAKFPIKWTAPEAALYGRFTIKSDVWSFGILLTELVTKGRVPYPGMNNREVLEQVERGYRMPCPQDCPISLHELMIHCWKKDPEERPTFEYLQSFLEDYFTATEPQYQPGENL

Sequence	phosphorylation enrichment
QWPGPYDRPGA [HNRNPH2_Y210_R206W]	0.636
EEGRVYVYRLS [ITGAE_Y549]	0.616
DHCNQYEQQKM [CHD7_Y75_Y72C]	0.534
RGFDTYFGYLL [ARSB_Y165]	8.58
LLREWYLQDPF [SIX3_Y225_YF]	0.564
PRNLIYFGEHP [TRPV6_Y201_C197R]	0.738
KKLEVYQSIAD [MYBPC3_Y548]	0.725
THQKSYQPGRK [CEFIP_Y210_N208K]	0.371
SSEFHYVGGFF [CTSC_Y347_YF]	0.516
FASTGYVIAIQ [GRIN2B_Y762_G763V]	0.474
QNVADYMRCLM [RPL5_Y207_Y210C]	0.729
IGNGYYFRVFS [MYBPC3_Y1136]	0.496
LYSINYLHFGD [KDM4C_Y201_E206D]	4.87
KGSEGYLAAIY [NF1_Y2503_T2507I]	0.8
KGSLPYNLILD [PKD1L2_Y406]	0.438
RRVLVYVGRGA [QDPR_Y16_G17V]	0.716
ENPAKYDDIKK [GAPDH_Y255_K251N]	0.506
IFLADCRIMEG [ALOX12B_Y318_Y318C_YF]	0.579
NVTRKYSRQIL [MAP3K2_Y463_T464S]	0.491
LNAGAYSKVVE [PPT1_Y172_Q177E]	0.306
KNNSIYVLANI [VNN1_Y134_V136L]	1.14
GHEYIYVDRMQ [PDGFRB_Y581_P584R]	1.94
TRSFKYLLLSM [NF1_Y491_YF]	0.386
SDVWSYGVTMW [ZAP70_Y525]	0.477
DVSVVCSEVKT [FCRL4_Y493_Y493C]	0.681
METKGYHSLPE [NR3C2_Y6]	0.287
TDLAFYLVCKG [ASL_Y376_R379C_YF]	0.411
FEGHSYSACTT [MMP9_Y241_R239H]	0.512
PESTLYRKFTT [NTRK1_Y701_I699T]	0.347

— the supplement of paper PMC10065799, “High-throughput profiling of sequence recognition by tyrosine kinases and SH2 domains using bacterial peptide display” (eLife, 2023)
